# Measured values from PMC9482650, “Quantitative fragmentomics allow affinity mapping of interactomes” (Nature Communications, 2022).
# T1: APBA2_2, Q99767
# T1 sequence (Q99767 654-744, limits assumed, looked up): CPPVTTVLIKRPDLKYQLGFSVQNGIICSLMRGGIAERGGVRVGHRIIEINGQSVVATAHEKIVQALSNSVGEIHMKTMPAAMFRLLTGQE
# T2: NHERF3_1, Q5T2W1
# T2 sequence (Q5T2W1 4-100, limits assumed, looked up): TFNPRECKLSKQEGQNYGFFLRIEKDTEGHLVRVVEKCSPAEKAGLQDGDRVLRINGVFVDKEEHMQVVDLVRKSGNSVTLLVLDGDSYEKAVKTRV
# T3: DLG3_2, Q92796
# T3 sequence (Q92796 221-321, limits assumed, looked up): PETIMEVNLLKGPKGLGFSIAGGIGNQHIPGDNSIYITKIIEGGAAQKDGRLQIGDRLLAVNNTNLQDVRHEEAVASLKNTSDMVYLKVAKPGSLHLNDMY
# T4: TX1BP3, O14907
# T4 sequence (O14907 10-122, limits assumed, looked up): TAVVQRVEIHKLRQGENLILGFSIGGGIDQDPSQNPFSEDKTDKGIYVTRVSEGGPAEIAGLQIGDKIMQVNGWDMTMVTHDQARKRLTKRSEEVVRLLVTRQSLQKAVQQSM
# T5: NHERF3_4, Q5T2W1
# T5 sequence (Q5T2W1 373-468, limits assumed, looked up): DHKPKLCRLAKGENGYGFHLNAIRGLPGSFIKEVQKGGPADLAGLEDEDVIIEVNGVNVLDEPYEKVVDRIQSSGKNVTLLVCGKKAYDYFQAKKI
# T6: LIN7C, Q9NUP9
# T6 sequence (Q9NUP9 88-185, limits assumed, looked up): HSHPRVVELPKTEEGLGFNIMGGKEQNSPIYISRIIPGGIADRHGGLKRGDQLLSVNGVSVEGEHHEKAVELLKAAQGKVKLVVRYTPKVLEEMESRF
# T7: MPDZ_5, O75970
# T7 sequence (O75970 695-796, limits assumed, looked up): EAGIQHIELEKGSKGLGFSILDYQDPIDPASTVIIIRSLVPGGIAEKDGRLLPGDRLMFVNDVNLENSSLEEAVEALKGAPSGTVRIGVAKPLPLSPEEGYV
# T8: SNTA1, Q13424
# T8 sequence (Q13424 82-180, limits assumed, looked up): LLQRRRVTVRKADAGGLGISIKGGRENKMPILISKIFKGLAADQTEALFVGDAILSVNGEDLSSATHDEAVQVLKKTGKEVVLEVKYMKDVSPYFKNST
# T9: MPP6, Q9NZW5
# T9 sequence (Q9NZW5 125-219, limits assumed, looked up): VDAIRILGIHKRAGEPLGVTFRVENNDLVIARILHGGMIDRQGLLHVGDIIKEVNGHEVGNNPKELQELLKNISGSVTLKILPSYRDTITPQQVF
# T10: SNTG1, Q9NSN8
# T10 sequence (Q9NSN8 52-150, limits assumed, looked up): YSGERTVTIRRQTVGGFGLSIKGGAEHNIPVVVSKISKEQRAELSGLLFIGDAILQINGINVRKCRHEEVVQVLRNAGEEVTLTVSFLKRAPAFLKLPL
# T11: PDZD7_3, Q9H5P4
# T11 sequence (Q9H5P4 857-944, limits assumed, looked up): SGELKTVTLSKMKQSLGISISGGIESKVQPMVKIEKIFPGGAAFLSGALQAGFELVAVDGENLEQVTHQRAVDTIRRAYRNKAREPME
# T12: GRIP1_3, Q9Y3R0
# T12 sequence (Q9Y3R0 247-346, limits assumed, looked up): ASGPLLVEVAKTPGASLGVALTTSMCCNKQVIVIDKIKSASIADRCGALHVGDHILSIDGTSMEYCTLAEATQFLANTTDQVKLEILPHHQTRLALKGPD
# T13: SNTB1, Q13884
# T13 sequence (Q13884 107-205, limits assumed, looked up): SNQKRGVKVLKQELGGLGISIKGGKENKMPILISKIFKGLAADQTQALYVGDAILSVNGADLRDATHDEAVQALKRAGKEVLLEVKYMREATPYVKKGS
# Assays:
# Assay in all cases: holdup assay
# Parameters in all cases: key: below the threshold = too weak to quantify, mostly under pKd 3.1 to 4
# FRMPD2_2, Q68DX3 = molecular target: FRMPD2_2, Q68DX3
# FRMPD2_2, Q68DX3, sequence (Q68DX3 944-1038): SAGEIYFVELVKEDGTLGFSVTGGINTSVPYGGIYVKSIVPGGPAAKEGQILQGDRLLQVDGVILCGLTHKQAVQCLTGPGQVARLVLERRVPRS
# PARD3_3, Q8TEW0 = molecular target: PARD3_3, Q8TEW0
# PARD3_3, Q8TEW0, sequence (Q8TEW0 582-685): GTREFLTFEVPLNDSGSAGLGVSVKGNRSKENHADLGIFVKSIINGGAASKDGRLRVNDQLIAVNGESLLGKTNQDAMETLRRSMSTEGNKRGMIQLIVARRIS
# APBA2_2, Q99767 = molecular target: T1, APBA2_2, Q99767
# DLG2_2, Q15700 = molecular target: DLG2_2, Q15700
# NHERF3_1, Q5T2W1 = molecular target: T2, NHERF3_1, Q5T2W1
# TJP1_2, Q07157 = molecular target: TJP1_2, Q07157
# TJP1_2, Q07157, sequence (Q07157 181-274): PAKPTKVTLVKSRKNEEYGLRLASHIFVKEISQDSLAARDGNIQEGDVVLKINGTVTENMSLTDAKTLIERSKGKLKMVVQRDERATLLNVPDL
# DLG3_2, Q92796 = molecular target: T3, DLG3_2, Q92796
# TX1BP3, O14907 = molecular target: T4, TX1BP3, O14907
# GIPC2, Q8TF65 = molecular target: GIPC2, Q8TF65
# GIPC2, Q8TF65, sequence (Q8TF65 112-203): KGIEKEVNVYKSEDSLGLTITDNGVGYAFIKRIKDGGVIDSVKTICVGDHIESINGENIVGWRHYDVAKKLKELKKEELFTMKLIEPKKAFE
# SCRIB_2, Q14160 = molecular target: SCRIB_2, Q14160
# SCRIB_2, Q14160, sequence (Q14160 857-960): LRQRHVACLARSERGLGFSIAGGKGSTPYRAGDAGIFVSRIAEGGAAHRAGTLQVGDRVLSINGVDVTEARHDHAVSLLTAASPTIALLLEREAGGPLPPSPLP
# GRIP2_5, Q9C0E4 = molecular target: GRIP2_5, Q9C0E4
# GRIP2_5, Q9C0E4, sequence (Q9C0E4 544-642): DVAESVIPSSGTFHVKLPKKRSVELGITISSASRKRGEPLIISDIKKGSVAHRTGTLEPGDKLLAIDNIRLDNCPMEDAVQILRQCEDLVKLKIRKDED
# NHERF3_4, Q5T2W1 = molecular target: T5, NHERF3_4, Q5T2W1
# LIN7C, Q9NUP9 = molecular target: T6, LIN7C, Q9NUP9
# DLG2_3, Q15700 = molecular target: DLG2_3, Q15700
# MPDZ_5, O75970 = molecular target: T7, MPDZ_5, O75970
# SNTA1, Q13424 = molecular target: T8, SNTA1, Q13424
# MPP6, Q9NZW5 = molecular target: T9, MPP6, Q9NZW5
# SNTG1, Q9NSN8 = molecular target: T10, SNTG1, Q9NSN8
# PDZD7_3, Q9H5P4 = molecular target: T11, PDZD7_3, Q9H5P4
# GRIP2_7, Q9C0E4 = molecular target: GRIP2_7, Q9C0E4
# GRIP2_7, Q9C0E4, sequence (Q9C0E4 934-1023): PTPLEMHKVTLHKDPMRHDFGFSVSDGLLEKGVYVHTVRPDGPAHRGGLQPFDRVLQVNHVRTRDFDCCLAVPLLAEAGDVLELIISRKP
# GRIP1_3, Q9Y3R0 = molecular target: T12, GRIP1_3, Q9Y3R0
# SNTB1, Q13884 = molecular target: T13, SNTB1, Q13884
# LNX1_2, Q8TBB1 = molecular target: LNX1_2, Q8TBB1
# LNX1_2, Q8TBB1, sequence (Q8TBB1 371-470): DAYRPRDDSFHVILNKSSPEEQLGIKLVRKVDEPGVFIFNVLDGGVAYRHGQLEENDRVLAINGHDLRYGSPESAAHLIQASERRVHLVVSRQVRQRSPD
# Inadl_8, Q8NI35 = molecular target: Inadl_8, Q8NI35
# Inadl_8, Q8NI35, sequence (Q8NI35 1425-1530): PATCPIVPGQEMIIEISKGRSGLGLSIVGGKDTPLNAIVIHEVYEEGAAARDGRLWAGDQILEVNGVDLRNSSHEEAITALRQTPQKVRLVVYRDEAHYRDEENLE
# DLG1_2, Q12959 = molecular target: DLG1_2, Q12959
# DLG1_2, Q12959, sequence (Q12959 314-412): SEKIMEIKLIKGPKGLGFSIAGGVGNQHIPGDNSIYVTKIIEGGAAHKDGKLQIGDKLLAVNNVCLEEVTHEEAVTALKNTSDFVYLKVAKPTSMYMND
# [1] = plain residues with an end cap or a label only (N-terminal biotin on a linker: ttds)
# [2] = plain residues with an end cap or a label only (N-terminal biotin on a linker: ahx)
binder,measurement,setting,value
"FVETQHQTQV [FAT3, Q8TDW7]",pKd,"FRMPD2_2, Q68DX3; [1]",3.97
same,pKd,"PARD3_3, Q8TEW0; [1]",below the threshold
same,pKd,"APBA2_2, Q99767; [1]",below the threshold
same,pKd,"DLG2_2, Q15700; [1]",4.5
same,pKd,"NHERF3_1, Q5T2W1; [1]",4.72
same,pKd,"TJP1_2, Q07157; [1]",below the threshold
same,pKd,"DLG3_2, Q92796; [1]",4.71
same,pKd,"TX1BP3, O14907; [1]",4
same,pKd,"GIPC2, Q8TF65; [1]",3.66
same,pKd,"SCRIB_2, Q14160; [1]",4.15
same,pKd,"GRIP2_5, Q9C0E4; [1]",below the threshold
same,pKd,"NHERF3_4, Q5T2W1; [1]",below the threshold
same,pKd,"LIN7C, Q9NUP9; [1]",below the threshold
same,pKd,"DLG2_3, Q15700; [1]",3.59
same,pKd,"MPDZ_5, O75970; [1]",below the threshold
same,pKd,"SNTA1, Q13424; [1]",4.09
same,pKd,"MPP6, Q9NZW5; [1]",below the threshold
same,pKd,"SNTG1, Q9NSN8; [1]",4.02
same,pKd,"PDZD7_3, Q9H5P4; [1]",4.11
same,pKd,"GRIP2_7, Q9C0E4; [1]",3.82
same,pKd,"GRIP1_3, Q9Y3R0; [1]",3.62
same,pKd,"SNTB1, Q13884; [1]",4.19
same,pKd,"LNX1_2, Q8TBB1; [1]",below the threshold
same,pKd,"Inadl_8, Q8NI35; [1]",below the threshold
same,pKd,"DLG1_2, Q12959; [1]",4.95
"SRSRRRETAL [HPV33-E6, P06427]",pKd,"FRMPD2_2, Q68DX3; [1]",below the threshold
same,pKd,"PARD3_3, Q8TEW0; [1]",below the threshold
same,pKd,"APBA2_2, Q99767; [1]",below the threshold
same,pKd,"DLG2_2, Q15700; [1]",4.57
same,pKd,"NHERF3_1, Q5T2W1; [1]",5.49
same,pKd,"TJP1_2, Q07157; [1]",below the threshold
same,pKd,"DLG3_2, Q92796; [1]",4.61
same,pKd,"TX1BP3, O14907; [1]",5.07
same,pKd,"GIPC2, Q8TF65; [1]",below the threshold
same,pKd,"SCRIB_2, Q14160; [1]",4.61
same,pKd,"GRIP2_5, Q9C0E4; [1]",below the threshold
same,pKd,"NHERF3_4, Q5T2W1; [1]",3.97
same,pKd,"LIN7C, Q9NUP9; [1]",4.14
same,pKd,"DLG2_3, Q15700; [1]",5.23
same,pKd,"MPDZ_5, O75970; [1]",below the threshold
same,pKd,"SNTA1, Q13424; [1]",4.66
same,pKd,"MPP6, Q9NZW5; [1]",below the threshold
same,pKd,"SNTG1, Q9NSN8; [1]",3.62
same,pKd,"PDZD7_3, Q9H5P4; [1]",4.65
same,pKd,"GRIP2_7, Q9C0E4; [1]",3.42
same,pKd,"GRIP1_3, Q9Y3R0; [1]",below the threshold
same,pKd,"SNTB1, Q13884; [1]",5.05
same,pKd,"LNX1_2, Q8TBB1; [1]",below the threshold
same,pKd,"Inadl_8, Q8NI35; [1]",below the threshold
same,pKd,"DLG1_2, Q12959; [1]",5.14
"PKMKLNETSF [SHKBP1, Q8TBC3]",pKd,"FRMPD2_2, Q68DX3; [2]",below the threshold
same,pKd,"PARD3_3, Q8TEW0; [2]",below the threshold
same,pKd,"APBA2_2, Q99767; [2]",below the threshold
same,pKd,"DLG2_2, Q15700; [2]",below the threshold
same,pKd,"NHERF3_1, Q5T2W1; [2]",4.55
same,pKd,"TJP1_2, Q07157; [2]",below the threshold
same,pKd,"DLG3_2, Q92796; [2]",below the threshold
same,pKd,"TX1BP3, O14907; [2]",below the threshold
same,pKd,"GIPC2, Q8TF65; [2]",below the threshold
same,pKd,"SCRIB_2, Q14160; [2]",below the threshold
same,pKd,"GRIP2_5, Q9C0E4; [2]",below the threshold
same,pKd,"NHERF3_4, Q5T2W1; [2]",below the threshold
same,pKd,"LIN7C, Q9NUP9; [2]",3.49
same,pKd,"DLG2_3, Q15700; [2]",below the threshold
same,pKd,"MPDZ_5, O75970; [2]",below the threshold
same,pKd,"SNTA1, Q13424; [2]",below the threshold
same,pKd,"MPP6, Q9NZW5; [2]",below the threshold
same,pKd,"SNTG1, Q9NSN8; [2]",3.68
same,pKd,"PDZD7_3, Q9H5P4; [2]",below the threshold
same,pKd,"GRIP2_7, Q9C0E4; [2]",below the threshold
same,pKd,"GRIP1_3, Q9Y3R0; [2]",below the threshold
same,pKd,"SNTB1, Q13884; [2]",below the threshold
same,pKd,"LNX1_2, Q8TBB1; [2]",below the threshold
same,pKd,"Inadl_8, Q8NI35; [2]",below the threshold
same,pKd,"DLG1_2, Q12959; [2]",below the threshold
